The target in experiment [1] is AAV2/5 vector particle (AAV5 capsid proteins VP1, VP2, VP3) (adeno-associated virus 5). Kind of experiment: cell-based or functional assay.
For experiment [2], the target named is AAV2/po1 hybrid vector particle (AAVpo1 capsid of VP1, VP2, VP3) (porcine adeno-associated virus AAVpo1). Kind of experiment: cell-based or functional assay.

Some results are limits rather than exact numbers.

On to “Pooled Human Ig (Immune Globulin Intravenous (Human) Carimune NF)”, for which the figures for the concentration of the pooled Human Ig required to neutralise >50% of AAV-LacZ particles in experiment [1] and in experiment [2] were 7.5e-05 mg/mL and greater than 12 mg/mL, respectively.

For the origin of these results see US20100272685A1.
